“And” between values parts separate entries of the source, which are not always exact repeats. Equal entries are not always repeated.
Biological target: 6x His-p10 (pRSF duet, first multiple cloning site) (Sesbania mosaic virus)

Question: With “untagged SeMV RdRp (pRSF duet) (domain or fragment)” as the substance, how does the in vitro RdRp assay (incorporation of αP32 UTP, filter binding, 2 μg protein, 30 °C, 1 h): activity of the RdRp-p10 complex against RdRp alone read?
Answer: The in vitro RdRp assay (incorporation of αP32 UTP, filter binding, 2 μg protein, 30 °C, 1 h): activity of the RdRp-p10 complex against RdRp alone was 5 fold and 6 fold.

Reference: article PMC4050190
